# Assay results taken from PMC5314774 (Nucleic Acids Research, 2016).
# T1: LAGE3 (bacterial, 6xHIS-GST removed) (human, UniProt Q14657 1-143)
# T1 sequence: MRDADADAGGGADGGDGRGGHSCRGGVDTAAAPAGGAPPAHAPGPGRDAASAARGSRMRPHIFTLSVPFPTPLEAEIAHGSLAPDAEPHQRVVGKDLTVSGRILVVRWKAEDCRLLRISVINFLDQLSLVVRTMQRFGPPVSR
# B1: C14ORF142 (bacterial, GST removed) (natural protein)
# chain: MELLGEYVGQEGKPQKLRVSCEAPGDGDPFQGLLSGVAQMKDMVTELFDPLVQGEVQHRVAAAPDEDLDGDDEDDAEDENNIDNRTNFDGPSAKRPKTPS
# B2: C14ORF142 (insect cells, polycistronic KEOPS vector) (natural protein)
# chain: B1 chain
# Assays:
# [1] = target: T1, LAGE3 (bacterial, 6xHIS-GST removed); test: SEC
# [2] = target: 4-subunit KEOPS complex (OSGEP, PRPK, TPRKB and LAGE3) (human, UniProt Q9NPF4;Q96S44;Q9Y3C4;Q14657); test: SEC-MALS
Binder,stoichiometry N [1],stoichiometry N [2]
B1,1,–
B2,–,1
